The values below come from patent US20250276077A1 (IMMUNOME, published 2025).

B1: AB-010357 (antibody, mouse IgG2a, V domains shown)
VH: QVQLQQWGAGLLKPSETLSLTCAVYGGSFSDYYWSWIRQPPGKGLEWIGEINHRGSINYNNYNPSLKSRVTISVDTSKNQFSLKLSSVTAADTAVYYCAKPLRPHCTNGVCYSGDAFDIWGQGTMVTVAS
VL: SYVLTQPPSVSVAPGQTARITCGGNNIGSKNVHWYQQKPGQAPVLVVYDDSDRPSGIPEQFSGSNSGNTATLTISRVEAGDEADYYCQVWDSSSDHVVFGGGTKLTVL
B2: AB-010363 (antibody, V domains shown)
VH: B1 VH with D31G
VL: B1 VL with Q60R
B3: AB-010361 (antibody, mouse IgG2a, V domains shown)
VH: B1 VH with D31G
VL: B1 VL
B4: AB-009812 (antibody, mouse IgG2a, V domains shown)
VH: B1 VH with I51V, R54S, T76P, S86T
VL: B1 VL with V97L
notes: Made on a mouse IgG2a framework
B5: AB-009816 (antibody, mouse IgG2a, V domains shown)
VH: B1 VH with I51V, T76A, S86T
VL: B1 VL with V97L
notes: as for B4
B6: AB-009815 (antibody, mouse IgG2a, V domains shown)
VH: B1 VH with I51V, S86T
VL: B1 VL with V97L
notes: as for B4
B7: AB-009813 (antibody, mouse IgG2a, V domains shown)
VH: B1 VH with I51V, R54A, T76P, S86T
VL: B1 VL with V97L
notes: as for B4
B8: AB-010361 (mouse IgG2a format) (antibody, V domains shown)
VH: B1 VH with D31G
VL: B1 VL
notes: tested in mIgG2a format
B9: AB-008873 (mouse IgG2a format) (antibody, V domains shown)
VH: B1 VH with I51V, T76P, S86T
VL: SYVLTQPPSVSVAPGQTARITCGGNNIGSKNVHWYQQKPGQAPVLVVYDDSDRPSGIPEQFSGSNSGNTATLTISRVEAGDEADYYCQVWDSSSDHLVFGGGTKLTVLG
B10: AB-010363 (mouse IgG2a format) (antibody, V domains shown)
VH: B1 VH with D31G
VL: B1 VL with Q60R
notes: tested in mIgG2a format

Substitutions are numbered along the chain they refer to.

One test has as its target T1, Human EphA2 (ephrin receptor A2) on cells (human, UniProt P29317 25-976). As to the kind of experiment: cell-based or functional assay.
As for B1, the “ADCC EC50” value is 11.6 nM and the “ADCC Fold-improved (against AB-008873)” value was found to be 3 fold.

In the case of B2, the “ADCC EC50” value was determined as 9.5 nM and the “ADCC Fold-improved (against AB-008873)” value turned out to be 3.66 fold.

For the molecule B3, the “ADCC EC50” value worked out at 3.1 nM and the “ADCC Fold-improved (against AB-008873)” value was 11.2 fold.

Another test concerns the target T1, Human EphA2 (ephrin receptor A2) on …. As to the kind of experiment: cell-based or functional assay. This is another data set of the same source.
In the case of B1, the “ADCC - EC50 (nM), Trial 1, A549” value stood at 12.3 nM and the “ADCC - EC50 (nM), Trial 2, A549” value is 9.6 nM.

Consider B2, for which the “ADCC - EC50 (nM), Trial 1, A549” value was 5.1 nM and the “ADCC - EC50 (nM), Trial 2, A549” value was 4.2 nM.

With B3, the “ADCC - EC50 (nM), Trial 1, A549” value worked out at 4 nM and the “ADCC - EC50 (nM), Trial 2, A549” value worked out at 2.2 nM.

The next test has the same target. As to the kind of experiment: cell-based or functional assay. This is another data set of the same source.
With B1, the “ADCC EC50 (nM), parent, A549” value came out at 10.9 nM.

Regarding B2, the “ADCC EC50 (nM), parent, A549” value was 4.65 nM.

For B3, the “ADCC EC50 (nM), parent, A549” value came to 3.1 nM.

The next test concerns the target T2, Human EphA2 (human, UniProt P29317 24-976).
T2 construct: Endogenous EphA2 in fresh frozen human tumor tissue sections, not a recombinant protein; also called ephrin receptor A2; hEphA2
As to the kind of experiment: IHC/IF on frozen human tumor tissue: ANC.
Consider B4, for which the IHC score turned out to be 2.

With B5, the IHC score was 2.

In turn, B6 came in with an IHC score of 2.

B7: the IHC score came to 2.

The next test deals with T2, Human EphA2. Description: IHC/IF on frozen human tumor tissue: CRC.
Take B4: the IHC score amounted to 1.

B5 showed an IHC score of 1.

Turning to B6, the IHC score came out at 1.

The molecule B7 yielded an IHC score of 1.

In the next test the target is T2, Human EphA2. Description: IHC/IF on frozen human tumor tissue: ESO.
Regarding B4, the IHC score is 2.

B5: the IHC score is 2.

In turn, B6 returned an IHC score of 2.

For B7, the IHC score was 2.

The target in a further test is T2, Human EphA2. Description: IHC/IF on frozen human tumor tissue: GAC.
With B4, the IHC score turned out to be 2.

B5 came in with an IHC score of 2.

B6 registered an IHC score of 2.

B7 registered an IHC score of 2.

Another test deals with T2, Human EphA2. As to the kind of experiment: IHC/IF on frozen human tumor tissue: HNC.
Regarding B4, the IHC score was 2.

In turn, B5 displayed an IHC score of 2.

The molecule B6 came in with an IHC score of 2.

The molecule B7 came in with an IHC score of 2.

A further test deals with T2, Human EphA2. As to the kind of experiment: IHC/IF on frozen human tumor tissue: OVA.
In turn, B4 displayed an IHC score of 2.

With B5, the IHC score turned out to be 2.

Turning to B6, the IHC score was found to be 2.

B7 had an IHC score of 2.

A further test addresses T2, Human EphA2. As to the kind of experiment: IHC/IF on frozen human tumor tissue: STS.
As to B4, the IHC score was found to be 2.

In the case of B5, the IHC score worked out at 2.

As to B6, the IHC score is 2.

Molecule B7 returned an IHC score of 2.

For another test, the target named is T2, Human EphA2. As to the kind of experiment: IHC/IF on frozen human tumor tissue: URO.
B4 gave an IHC score of 1.

Regarding B5, the IHC score turned out to be 1.

B6 registered an IHC score of 1.

As for B7, the IHC score stood at 1.

A further test deals with T2, Human EphA2. Description: IHC/IF on frozen human tumor tissue: MELA.
For the molecule B4, the IHC score was 2.

B5 gave an IHC score of 2.

For B6, the IHC score came out at 2.

As for B7, the IHC score was 2.

The target of a further test is T2, Human EphA2. Description: IHC/IF on frozen human tumor tissue: PANC.
In turn, B4 gave an IHC score of 1.

The molecule B5 came in with an IHC score of 1.

The molecule B6 gave an IHC score of 1.

B7 gave an IHC score of 1.

In the next test the target is T2, Human EphA2. Description: IHC/IF on frozen human tumor tissue: PROC.
As to B4, the IHC score came to 1.

With B5, the IHC score worked out at 1.

B6 returned an IHC score of 1.

B7 gave an IHC score of 1.

A further test has as its target T2, Human EphA2. As to the kind of experiment: IHC/IF on frozen human tumor tissue: TNBC.
Turning to B4, the IHC score was determined as 1.

For B5, the IHC score was 1.

B6: the IHC score is 1.

Regarding B7, the IHC score was 1.

The next test concerns the target T2, Human EphA2. Description: IHC/IF on frozen human tumor tissue: ER+ BRC.
On to B4, for which the IHC score stood at 1.

B5 had an IHC score of 1.

Molecule B6 returned an IHC score of 1.

Consider B7, for which the IHC score is 1.

A further test has as its target T2, Human EphA2. Description: IHC/IF on frozen human tumor tissue: NSCLC-SQ.
In turn, B4 had an IHC score of 1.

For the molecule B5, the IHC score amounted to 1.

With B6, the IHC score was determined as 1.

B7 showed an IHC score of 1.

The target in a further test is T2, Human EphA2. Description: IHC/IF on frozen human tumor tissue: Her2+ BRC.
Molecule B4 registered an IHC score of 2.

For B5, the IHC score turned out to be 2.

The molecule B6 showed an IHC score of 2.

B7: the IHC score was 1.

The next test concerns the target T2, Human EphA2. Description: IHC/IF on frozen human tumor tissue: NSCLC-Adeno.
For B4, the IHC score came out at 2.

For B5, the IHC score came out at 2.

Take B6: the IHC score was found to be 2.

In turn, B7 showed an IHC score of 2.

A further test addresses T2, Human EphA2. As to the kind of experiment: IHC/IF on frozen human tumor tissue: RCC-papillary.
For the molecule B4, the IHC score came out at 1.

Take B5: the IHC score came to 1.

Take B6: the IHC score was 1.

Regarding B7, the IHC score worked out at 1.

The target of a further test is T2, Human EphA2. As to the kind of experiment: IHC/IF on frozen human tumor tissue: RCC-clear cell.
As to B4, the IHC score was determined as 1.

B5 returned an IHC score of 1.

Regarding B6, the IHC score is 1.

As for B7, the IHC score was determined as 1.

A further test addresses T2, Human EphA2. As to the kind of experiment: IHC/IF on frozen human tumor tissue: UCEC-papillary.
B4 showed an IHC score of 2.

As for B5, the IHC score stood at 2.

On to B6, for which the IHC score is 2.

For the molecule B7, the IHC score is 2.

The next test concerns the target T2, Human EphA2. As to the kind of experiment: IHC/IF on frozen human tumor tissue: UCEC-clear cell.
Take B4: the IHC score was 1.

B5 registered an IHC score of 2.

Molecule B6 returned an IHC score of 2.

The molecule B7 came in with an IHC score of 2.

The next test has as its target T2, Human EphA2. As to the kind of experiment: IHC/IF on frozen human tumor tissue: UCEC-endometrioid.
On to B4, for which the IHC score worked out at 1.

In turn, B5 registered an IHC score of 1.

In turn, B6 gave an IHC score of 1.

For B7, the IHC score is 1.

The target in a further test is T3, C-terminally His-tagged hEphA2-FN2 (Thr437-Asn534+His tag) (human, UniProt P29317 437-534).
T3 construct: also called FN2 domain of hEphA2
Description: SPR Biacore T200, 25 C; mIgG2a captured by anti-mouse Fc, hEphA2-FN2-His analyte; steady-state monovalent KD. On the procedure:
Binding of antibodies to the FN2 domain of hEphA2 was measured using the Biacore® T200 SPR system at 25° C. using HBS-EP+ buffer (0.01 M HEPES pH 7.4, 0.15 M NaCl, 3 mM EDTA, 0.005% v/v Surfactant P20). Antibodies in mIgG2a format were captured at levels between 475-715 RU via an anti-mouse Fc antibody immobilized to a CM5 chip. Binding was assessed using a titration of C-terminally His-tagged hEphA2-FN2 (Thr437-Asn534+His tag) associated for 30 s or 75 s at 30 μL/min. Data was double-reference subtracted using both a surface without captured antibody and from injections of HBS-EP+ buffer. The equilibrium response was measured at 4 seconds before the end of association with a window of 5 seconds and fit using the Biacore T200 Evaluation Software 3.1 with the Steady State Affinity Model.
In general terms: Surface plasmon resonance follows binding to a sensor surface in real time, without labels.
Take B8: the dissociation constant Kd worked out at 1110 nM.

Turning to B9, binding was characterised by a dissociation constant (Kd) of 2260 nM.

In turn, B10 displayed a Kd of 1310 nM.

Usually Kd stands for the concentration at which binding is half-saturated.
